Molecular target: T1, V5-tagged human lipoprotein lipase (LPL) (human, UniProt P06858 28-475)
T1 construct: also called V5-tagged human LPL; V5-LPL; not shown: V5 tag
T1 sequence: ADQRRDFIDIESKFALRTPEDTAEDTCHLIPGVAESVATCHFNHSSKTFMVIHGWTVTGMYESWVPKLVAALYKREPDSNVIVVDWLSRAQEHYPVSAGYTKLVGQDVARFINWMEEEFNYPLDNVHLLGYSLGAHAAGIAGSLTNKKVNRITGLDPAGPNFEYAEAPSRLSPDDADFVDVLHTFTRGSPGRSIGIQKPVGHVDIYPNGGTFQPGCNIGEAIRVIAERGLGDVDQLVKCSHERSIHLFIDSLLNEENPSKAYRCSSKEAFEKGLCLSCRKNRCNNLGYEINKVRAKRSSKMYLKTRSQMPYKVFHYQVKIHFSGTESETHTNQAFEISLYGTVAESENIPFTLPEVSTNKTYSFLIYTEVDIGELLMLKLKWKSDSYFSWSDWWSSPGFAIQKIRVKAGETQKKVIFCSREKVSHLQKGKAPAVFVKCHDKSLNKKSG
Experiment: cell-based LPL binding, western blot of CHO cell extracts (FIG. 4A)
Method: FIG. 4A-B. GPIHBP1 Autoantibodies Block the Binding of LPL to GPIHBP1. […] The LPL used in these experiments was V5-tagged. Western blots were performed with a goat antibody against the S-protein tag (Abcam, 5 μg/ml), followed by an IRDye 680-donkey anti-goat IgG (LI_COR, 1:2000; GPIHBP1) and an IRDye 800-V5 antibody (1:500; LPL). Actin was used as a loading control, and was detected with a rabbit antibody against actin (Abcam, 5 μg/ml) followed by an IRDye 800-donkey anti-rabbit IgG (LI-COR, 1:2000; lower panel). […] In lane 5, pre-incubation of cells with plasma 38 (1:20) abolished LPL binding. […] In lane 2, a mutant GPIHBP1 (GPIHBP1-W109S), which lacks the ability to bind LPL, was included as a control. […] DNA was stained with DAPI (fourth column).
Expression vectors for S-protein-tagged wild-type (wt) GPIHBP1, GPIHBP1-G175R, and GPIHBP1-W109S (or the empty vector) were transfected into CHO pgsA-745 cells or human umbilical vein endothelial cells (HUVEC). After 1 day, the cells were washed three times in PBS and incubated for 1 h at 4° C. with V5-tagged human LPL (900 ng/well). Then the cells were washed six times in PBS, and cell lysates were collected in RIPA buffer (Sigma) containing a protease inhibitor cocktail (Roche). […]

binding result: binds
B1: S-protein-tagged wild-type human GPIHBP1 (GPIHBP1-wt) expressed on transfected CHO pgsA-745 cells (receptor)
chain: QTQQEEEEEDEDHGPDDYDEEDEDEVEEEETNRLPGGRSRVLLRCYTCKSLPRDERCNLTQNCSHGQTCTTLIAHGNTESGLLTTHSTWCTDSCQPITKTVEGTQVTMTCCQSSLCNVPPWQSSRVQDPTG
notes: also called GPIHBP1-transfected cells; GPIHBP1-expressing cells; not shown: S-protein tag

Reference: US20190160076A1 (University of California, published 2019)
